Measured values taken from publication PMC2376138 (2002).

How the values were obtained:
[1] = target: T1, SC142-reactive antigen (human (endogenous in SNU16), highly glycosylated (O-glycans)); assay: SPR; apparent; immobilised mAb, 1:1 Langmuir global fit
[2] = target: T1, SC142-reactive antigen; assay: SPR; apparent; immobilised scFv, 1:1 Langmuir global fit

| Binder | koff [1] [s⁻¹] | koff [2] [s⁻¹] |
| --- | --- | --- |
| SC142 monoclonal antibody (antibody, V domains shown) VH: QVKLQQSGTEVVKPGASVKLSCKASGYIFTSYDIDWVRQTPEQGLEWIGWIFPGEGSTEYNEKFKGRATLSVDKSSSTAYMELTRLTSEDSAVYFCARGDYYRRYFDLWGQGTTVTVSS VL: DIELTQSPTIMSASPGERVTMTCSASSSIRYIYWYQQKPGSSPRLLIYDTSNVAPGVPFRFSGSGSGTSYSLTINRMEAEDAATYYCLEWSGYPYTFGGGTKLELK | 0.000825 |  |
| recombinant SC142 scFv (scFv, V domains shown) VH: QVKLQQSGTEVVKPGASVKLSCKASGYIFTSYDIDWVRQTPEQGLEWIGWIFPGEGSTEYNEKFKGRATLSVDKSSSTAYMELTRLTSEDSAVYFCARGDYYRRYFDLWGQGTTVTVSS VL: DIELTQSPTIMSASPGERVTMTCSASSSIRYIYWYQQKPGSSPRLLIYDTSNVAPGVPFRFSGSGSGTSYSLTINRMEAEDAATYYCLEWSGYPYTFGGGTKLELK |  | 0.000776 |
